For one substance, Kd results are on record in patent US20230093211A1.

What all share (assay): SPR (Biacore T200), p75NTR-Fc captured on Protein A, neurotrophin injected
One test deals with NGF.
The target in the next test is NT-3.
Another test concerns the target T1, BDNF.
T1 sequence (P23560 19-247, species assumed, looked up): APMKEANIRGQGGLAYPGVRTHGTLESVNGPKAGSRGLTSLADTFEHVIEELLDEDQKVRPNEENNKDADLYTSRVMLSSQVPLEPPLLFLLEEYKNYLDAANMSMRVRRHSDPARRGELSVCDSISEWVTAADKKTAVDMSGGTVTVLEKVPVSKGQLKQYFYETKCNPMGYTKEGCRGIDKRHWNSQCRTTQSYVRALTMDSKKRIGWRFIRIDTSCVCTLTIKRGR

In the next test the target is T2, NT-4.
T2 sequence (P34130 81-210, species assumed, looked up): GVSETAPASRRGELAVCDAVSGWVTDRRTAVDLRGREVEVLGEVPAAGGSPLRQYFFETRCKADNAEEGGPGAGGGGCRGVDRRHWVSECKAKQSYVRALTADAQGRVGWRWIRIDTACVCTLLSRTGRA

Chain of p75NTR-Fc (Fc fusion) (chain): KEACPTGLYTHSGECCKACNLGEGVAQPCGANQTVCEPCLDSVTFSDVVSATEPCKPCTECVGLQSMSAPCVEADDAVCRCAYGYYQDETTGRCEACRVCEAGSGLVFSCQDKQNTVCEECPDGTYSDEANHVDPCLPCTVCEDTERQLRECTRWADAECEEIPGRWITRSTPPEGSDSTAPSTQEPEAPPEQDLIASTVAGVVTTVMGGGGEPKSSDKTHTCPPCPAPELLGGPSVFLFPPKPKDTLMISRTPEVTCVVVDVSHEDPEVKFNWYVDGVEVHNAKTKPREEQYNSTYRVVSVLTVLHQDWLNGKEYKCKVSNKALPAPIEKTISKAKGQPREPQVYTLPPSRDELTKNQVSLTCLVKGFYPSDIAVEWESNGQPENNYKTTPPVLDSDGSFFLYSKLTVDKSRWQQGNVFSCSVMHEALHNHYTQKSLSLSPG
Chain of NGF (P01138 122-241): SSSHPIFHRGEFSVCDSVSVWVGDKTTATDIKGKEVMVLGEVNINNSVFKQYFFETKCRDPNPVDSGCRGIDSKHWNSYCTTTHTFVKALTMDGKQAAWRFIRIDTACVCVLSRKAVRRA

With p75NTR-Fc (Fc fusion), the Kd worked out at 0.554 nM with NGF, 0.0142 nM in the test with NT-3, 0.0418 nM with BDNF and 0.181 nM with NT-4.
